Laboratory results published in patent US20210388110A1 (published 2021).
Changes are numbered by the printed parent chain.

B1: TR01H058-E22Hh/none-Hi-Kn010G3/L0000-k0 (antibody, human IgG1, kappa, L234A L235A, N297A)
heavy: QVQLVESGGGLVQPGRSLRLSCAASGFTFSNAWMHWVRQAPGKGLEWVAQIKDKSQNYATYYAESVKGRFTISRDDSKNSLYLQMNSLKTEDTAVYYCRYVHYSASYGVDYWGQGTTVTVSSASTKGPSVFPLAPSSKSTSGGTAALGCLVKDYFPEPVTVSWNSGALTSGVHTFPAVLQSSGLYSLSSVVTVPSSSLGTQTYICNVNHKPSNTKVDKKVEPKSCDKTHTCPPCPAPEAAGGPSVFLFPPKPKDTLMISRTPEVTCVVVDVSHEDPEVKFNWYVDGVEVHNAKTKPREEQYASTYRVVSVLTVLHQDWLNGKEYKCKVSNKALPAPIEKTISKAKGQPREPQVYTLPPSRCELTKNQVSLSCAVKGFYPSDIAVEWESNGQPENNYKTTPPVLDSDGSFFLVSKLTVDKSRWQQGNVFSCSVMHEALHNHYTQKSLSLSPDYKDDDDK
chain: EPKSSDKTHTCPPCPAPELLGGPSVFLFPPKPKDTLMISRTPEVTCVVVDVSHEDPEVKFNWYVDGVEVHNAKTKPREEQYNSTYRVVSVLTVLHQDWLNGKEYKCKVSNKALPAPIEKTISKAKGQPREPQVCTLPPSRDELTKNQVSLWCLVKGFYPSDIAVEWESNGQPENNYKTTPPVLDSDGSFFLYSKLTVDKSRWQQGNVFSCSVMHEALHNRYTQKSLSLSP
light: DIVMTQSPLSLPVTPGEPASISCRSSQSLVHSNRNTYLHWYQQKPGQAPRLLIYKVSNRFSGVPDRFSGSGSGTDFTLKISRVEAEDVGVYYCGQGTQVPYTFGQGTKLEIKRTVAAPSVFIFPPSDEQLKSGTASVVCLLNNFYPREAKVQWKVDNALQSGNSQESVTEQDSKDSTYSLSSTLTLSKADYEKHKVYACEVTHQGLSSPVTKSFNRGEC
notes: one-arm antibody (single Fab) with Fab-less hinge-Fc chain Hi-Kn010G3
B2: TR01H097-E22Hh/none-Hi-Kn010G3/L0011-k0 (antibody, human IgG1, kappa, L234A L235A, N297A)
heavy: B1 heavy with T60L, S104A, S106G, Y111A
chain: B1 chain
light: B1 light with S28P
notes: as for B1
B3: TR01H082-E22Hh/none-Hi-Kn010G3/L0272-k0 (antibody, human IgG1, kappa, L234A L235A, N297A)
heavy: B1 heavy with S104A, S106G, Y111A
chain: B1 chain
light: B1 light with S28P, N35Q
notes: as for B1
B4: TR01H067-E22Hh/none-Hi-Kn010G3/L0215-k0 (antibody, human IgG1, kappa, L234A L235A, N297A)
heavy: B1 heavy with S104A, Y111A
chain: B1 chain
light: B1 light with S28P, L29P, L38I
notes: as for B1
B5: TR01H067-E22Hh/none-Hi-Kn010G3/TR01L015-k0 (antibody, human IgG1, kappa, L234A L235A, N297A)
heavy: B1 heavy with S104A, Y111A
chain: B1 chain
light: B1 light with L29P, Q42L, A48S, R50Q
notes: as for B1
B6: TR01H075-E22Hh/none-Hi-Kn010G3/L0000-k0 (antibody, human IgG1, kappa, L234A L235A, N297A)
heavy: B1 heavy with S104A
chain: B1 chain
light: B1 light
notes: as for B1
B7: TR01H082-E22Hh/none-Hi-Kn010G3/TR01L020-k0 (antibody, human IgG1, kappa, L234A L235A, N297A)
heavy: B1 heavy with S104A, S106G, Y111A
chain: B1 chain
light: B1 light with R24Q, S25A, Q27E, L29P, L38I, H39Q, Q42L, A48S, R50Q, G94Y
notes: as for B1
B8: TR01H104-E22Hh/none-Hi-Kn010G3/L0011-k0 (antibody, human IgG1, kappa, L234A L235A, N297A)
heavy: B1 heavy with Y62I, S104A, S106G, Y111A
chain: B1 chain
light: B1 light with S28P
notes: as for B1
B9: TR01H101-E22Hh/none-Hi-Kn010G3/L0011-k0 (antibody, human IgG1, kappa, L234A L235A, N297A)
heavy: B1 heavy with T60V, S104A, S106G, Y111A
chain: B1 chain
light: B1 light with S28P
notes: as for B1
B10: TR01H067-E22Hh/none-Hi-Kn010G3/TR01L018-k0 (antibody, human IgG1, kappa, L234A L235A, N297A)
heavy: B1 heavy with S104A, Y111A
chain: B1 chain
light: B1 light with R24Q, S25A, Q27E, L29P, Q42L, A48S, R50Q
notes: as for B1
B11: TR01H105-E22Hh/none-Hi-Kn010G3/L0011-k0 (antibody, human IgG1, kappa, L234A L235A, N297A)
heavy: B1 heavy with Y62L, S104A, S106G, Y111A
chain: B1 chain
light: B1 light with S28P
notes: as for B1
B12: TR01H098-E22Hh/none-Hi-Kn010G3/L0011-k0 (antibody, human IgG1, kappa, L234A L235A, N297A)
heavy: B1 heavy with T60P, S104A, S106G, Y111A
chain: B1 chain
light: B1 light with S28P
notes: as for B1
B13: TR01H103-E22Hh/none-Hi-Kn010G3/L0011-k0 (antibody, human IgG1, kappa, L234A L235A, N297A)
heavy: B1 heavy with Y62G, S104A, S106G, Y111A
chain: B1 chain
light: B1 light with S28P
notes: as for B1
B14: TR01H067-E22Hh/none-Hi-Kn010G3/L0248-k0 (antibody, human IgG1, kappa, L234A L235A, N297A)
heavy: B1 heavy with S104A, Y111A
chain: B1 chain
light: B1 light with S25P, L29P, L38I, H39Q, G94Y
notes: as for B1
B15: TR01H107-E22Hh/none-Hi-Kn010G3/L0011-k0 (antibody, human IgG1, kappa, L234A L235A, N297A)
heavy: B1 heavy with Y62Q, S104A, S106G, Y111A
chain: B1 chain
light: B1 light with S28P
notes: as for B1
B16: TR01H082-E22Hh/none-Hi-Kn010G3/L0268-k0 (antibody, human IgG1, kappa, L234A L235A, N297A)
heavy: B1 heavy with S104A, S106G, Y111A
chain: B1 chain
light: B1 light with L29P, L38I, H39Q, G94V
notes: as for B1
B17: TR01H068-E22Hh/none-Hi-Kn010G3/L0000-k0 (antibody, human IgG1, kappa, L234A L235A, N297A)
heavy: B1 heavy with L11V, R16G, S104A, Y111A
chain: B1 chain
light: B1 light
notes: as for B1
B18: TR01H067-E22Hh/none-Hi-Kn010G3/L0222-k0 (antibody, human IgG1, kappa, L234A L235A, N297A)
heavy: B1 heavy with S104A, Y111A
chain: B1 chain
light: B1 light with L29P, L38I, H39Q, G94Y
notes: as for B1
B19: TR01H082-E22Hh/none-Hi-Kn010G3/L0270-k0 (antibody, human IgG1, kappa, L234A L235A, N297A)
heavy: B1 heavy with S104A, S106G, Y111A
chain: B1 chain
light: B1 light with N35Q
notes: as for B1
B20: TR01H090-E22Hh/none-Hi-Kn010G3/L0011-k0 (antibody, human IgG1, kappa, L234A L235A, N297A)
heavy: B1 heavy with R16G, S104A, S106G, Y111A
chain: B1 chain
light: B1 light with S28P
notes: as for B1
B21: TR01H094-E22Hh/none-Hi-Kn010G3/L0011-k0 (antibody, human IgG1, kappa, L234A L235A, N297A)
heavy: B1 heavy with K67S, S104A, S106G, Y111A
chain: B1 chain
light: B1 light with S28P
notes: as for B1
B22: TR01H082-E22Hh/none-Hi-Kn010G3/L0271-k0 (antibody, human IgG1, kappa, L234A L235A, N297A)
heavy: B1 heavy with S104A, S106G, Y111A
chain: B1 chain
light: B1 light with S28P, L29P, N35Q
notes: as for B1
B23: TR01H106-E22Hh/none-Hi-Kn010G3/L0011-k0 (antibody, human IgG1, kappa, L234A L235A, N297A)
heavy: B1 heavy with Y62P, S104A, S106G, Y111A
chain: B1 chain
light: B1 light with S28P
notes: as for B1
B24: TR01H067-E22Hh/none-Hi-Kn010G3/L0226-k0 (antibody, human IgG1, kappa, L234A L235A, N297A)
heavy: B1 heavy with S104A, Y111A
chain: B1 chain
light: B1 light with L29P, L38I, G94I
notes: as for B1
B25: TR01H092-E22Hh/none-Hi-Kn010G3/L0011-k0 (antibody, human IgG1, kappa, L234A L235A, N297A)
heavy: B1 heavy with K67A, S104A, S106G, Y111A
chain: B1 chain
light: B1 light with S28P
notes: as for B1
B26: TR01H099-E22Hh/none-Hi-Kn010G3/L0011-k0 (antibody, human IgG1, kappa, L234A L235A, N297A)
heavy: B1 heavy with T60Q, S104A, S106G, Y111A
chain: B1 chain
light: B1 light with S28P
notes: as for B1
B27: TR01H070-E22Hh/none-Hi-Kn010G3/L0000-k0 (antibody, human IgG1, kappa, L234A L235A, N297A)
heavy: B1 heavy with L11V, R16G, S104A
chain: B1 chain
light: B1 light
notes: as for B1
B28: TR01H102-E22Hh/none-Hi-Kn010G3/L0011-k0 (antibody, human IgG1, kappa, L234A L235A, N297A)
heavy: B1 heavy with Y62F, S104A, S106G, Y111A
chain: B1 chain
light: B1 light with S28P
notes: as for B1
B29: TR01H091-E22Hh/none-Hi-Kn010G3/L0011-k0 (antibody, human IgG1, kappa, L234A L235A, N297A)
heavy: B1 heavy with R19K, S104A, S106G, Y111A
chain: B1 chain
light: B1 light with S28P
notes: as for B1
B30: TR01H093-E22Hh/none-Hi-Kn010G3/L0011-k0 (antibody, human IgG1, kappa, L234A L235A, N297A)
heavy: B1 heavy with K67Q, S104A, S106G, Y111A
chain: B1 chain
light: B1 light with S28P
notes: as for B1
B31: TR01H096-E22Hh/none-Hi-Kn010G3/L0011-k0 (antibody, human IgG1, kappa, L234A L235A, N297A)
heavy: B1 heavy with T60G, S104A, S106G, Y111A
chain: B1 chain
light: B1 light with S28P
notes: as for B1
B32: TR01H082-E22Hh/none-Hi-Kn010G3/L0222-k0 (antibody, human IgG1, kappa, L234A L235A, N297A)
heavy: B1 heavy with S104A, S106G, Y111A
chain: B1 chain
light: B1 light with L29P, L38I, H39Q, G94Y
notes: as for B1
B33: TR01H082-E22Hh/none-Hi-Kn010G3/TR01L017-k0 (antibody, human IgG1, kappa, L234A L235A, N297A)
heavy: B1 heavy with S104A, S106G, Y111A
chain: B1 chain
light: B1 light with L29P, L38I, H39Q, Q42L, A48S, R50Q, G94Y
notes: as for B1
B34: TR01H095-E22Hh/none-Hi-Kn010G3/L0011-k0 (antibody, human IgG1, kappa, L234A L235A, N297A)
heavy: B1 heavy with T60F, S104A, S106G, Y111A
chain: B1 chain
light: B1 light with S28P
notes: as for B1
B35: TR01H067-E22Hh/none-Hi-Kn010G3/L0011-k0 (antibody, human IgG1, kappa, L234A L235A, N297A)
heavy: B1 heavy with S104A, Y111A
chain: B1 chain
light: B1 light with S28P
notes: as for B1

Molecular target: T1, soluble human CD3ε chain (human, UniProt P07766 23-126, limits assumed)
T1 construct: also called human CD3 epsilon chain
Assay: SPR (Biacore), soluble human CD3ε chain

T1 sequence (P07766 23-126 limits assumed): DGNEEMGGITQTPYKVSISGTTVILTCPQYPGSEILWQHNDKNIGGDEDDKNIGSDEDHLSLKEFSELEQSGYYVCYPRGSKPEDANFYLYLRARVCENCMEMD

Row | Kd [nM] | Binder
1 | 115 | B1
2 | 87.6 | B2
3 | 74.4 | B3
4 | 74.1 | B4
5 | 86.4 | B5
6 | 98.8 | B6
7 | 106 | B7
8 | 82.6 | B8
9 | 78.7 | B9
10 | 52.6 | B10
11 | 69.5 | B11
12 | 91.4 | B12
13 | 77.2 | B13
14 | 139 | B14
15 | 69.1 | B15
16 | 136 | B16
17 | 101 | B17
18 | 76.3 | B18

Row | Kd [nM] | Binder
19 | 74.2 | B19
20 | 69.5 | B20
21 | 70 | B21
22 | 68.2 | B22
23 | 100 | B23
24 | 132 | B24
25 | 72.1 | B25
26 | 77.4 | B26
27 | 120 | B27
28 | 85.4 | B28
29 | 66.7 | B29
30 | 68 | B30
31 | 74.7 | B31
32 | 101 | B32
33 | 109 | B33
34 | 90.9 | B34
35 | 71.8 | B35
